B1: TICA0212: combination of TICA0162 and TICA0152; VH SEQ ID NO:72, VL SEQ ID NO:77 (antibody, listed as Homo sapiens, V domains shown)
VH: QVQLQESGAEVKKPGSSVRVSCKASGGTFDSYSIHWVRQAPGQGLEWMGGIIPAFGTLSSAQDFQARVTISADKSTSTAYMELSGLRSEDTAVYYCARGSFDYYFWSASHPPNDALAIWGQGTLVTVSS
VL: QSVVTQPPSVSAAPGQKVTISCSGSNSDIGNNYVSWYQQLPGTAPKLLIYDNNKRPSGIPDRFSGSKSGTSATLAITGLQAGDEADYYCGTWLYDRAVGLFGGGTKVTVL

Tests used:
TICA0053 Fab = assay: HTRF competition binding selectivity assay, TICA0053 His-Fab; set-up: species or system human; settings: first series (Table 2), not DMSO normalised; read-out: IC50 (uM) for inhibition of biotinylated ticagrelor binding to TICA0053 his-Fab
Method: Total Binding control wells were set up which contained all of the assay components above except that 5 ul assay buffer was added in place of the test selectivity compound addition. Negative Binding control wells were set up which contained all of the assay components included in the Total Binding control wells except that 5ul assay buffer was added in place of the His-Fab addition. Test compound serial titrations were either ½ or ⅓ depending on the particular experiment and top final assay compound concentrations were optimized on a compound specific basis. The concentration of biotinylated ticagrelor and His-Fab was optimized on a Fab specific basis in separate experiments. For the four Fabs investigated at the end of the lead isolation phase (TICA0010, TICA0049, TICA0053 and TICA0072) the final assay reagent concentrations used are set out in Table 1 below:
For the two Fabs investigated at the end of the lead optimization phase (TICA0162 and TICA0212) the final assay reagent concentrations used were 5nM biotinylated ticagrelor and 1 nM His Fab in both cases. […] In order to enable subsequent normalization of data to correct for any such vehicle related effects parallel titrations of DMSO alone were included in most experiments in which the final assay DMSO concentrations mirrored those of the test compound serial dilutions. At the end of the set up procedure that assay was incubated for 3hrs at RT before being read on an Envision plate reader using a standard read protocol.
The negative ratio value used in the calculation of % Delta F was derived from the Negative Binding control wells. % Delta F values were then used to calculate % Specific Binding values according to the equation below: Specific Binding (%)={(Sample Delta F−Negative Binding Delta F)/(Total Binding Delta F−Negative Binding Delta F)}×100
For standard calculations of % Specific Binding Total Binding Delta F was taken from Total Binding control wells which contained all of the aforementioned components of the assay but without inclusion of any competing test compound.
In those experiments where DMSO normalization was applied DMSO normalised % Specific Binding was calculated essentially according to the equation above except that in this case Total Binding Delta F was taken from wells containing all of the components in the Total Binding control wells as well as DMSO at a concentration equivalent to that in the relevant sample well.

[1] = Total plasma concentration of ticagrelor and TAM (LC-MS/MS); format: in vivo, mice
Method: Blood samples were collected in tubes with EDTA anticoagulant and centrifuged for 5 min at 10000× g at room temperature to prepare plasma. The plasma concentration of ticagrelor and TAM were determined by protein precipitation and liquid chromatography with tandem mass spectrometry (LC-MS/MS) as described in published method [Sillén H., et al., J Chromatogr B Analyt Technol Biomed Life Sci 2010; 878: 2299-306] with the following deviations. Plasma, 50 μL, was protein precipitated with 180 μl internal standard (D7-ZD6140) in acetonitrile. The liquid chromatographic system and mass spectrometer was an Acquity Ultra Performance LC coupled to a Xevo TQ-S mass spectrometer from Waters. Chromatographic separation was achieved on an Aquity UPLC® BEH C18 column (2.1×50 mm, particle size 1.7 um). Negative electrospray ionization was utilized. Eluent A was water with 10 mmol/L ammonium acetate, pH5 and eluent B was acetonitrile with 10 mmol/L ammonium acetate. Injection volume was 1 to 5 μL and the analytical gradient started with 4% B, increasing to 95% in 1.5 min, remaining until 2.3 min, before returning to initial conditions within 2.4 min followed by 0.3 min re-equilibration. No quality control samples were used in the analysis. The lower limit of quantification (LLOQ) was 0.005 μmol/L and the calibration range was 0.005 to 15.0 μM.
The total plasma concentrations of ticagrelor and TAM in presence of TICA0212/MEDI2452 were determined by adding 1% formic acid (FA: Sample, 1:5) followed by protein precipitation and LC-MS/MS as described above. Formic acid was added to the sample to facilitate dissociation of ticagrelor and TICA0212/MEDI2452.

[2] = test system: ticagrelor mediated inhibition of ADP-induced platelet aggregation; assay: Light transmission aggregometry in human PRP, reversal of ticagrelor; format: cell-based; settings: for mean extent of reversal of ticagrelor mediated inhibition: Example 10, 1 μM Fab, n=3
Method: (§1) The extent and potency of TICA0212/MEDI2452 to reverse ticagrelor or TAM mediated inhibition of ADP-induced platelet aggregation was determined in human platelet rich plasma (PRP) using light transmission aggregometry.
(§2) For the in vitro human PRP assay, blood was collected from fasted healthy volunteers by vein puncture of vena cephalica. […] The anticoagulated human blood was centrifuged at 240× g for 15 min. PRP was carefully removed and transferred to a clean vial. Platelet poor plasma (PPP) was prepared by centrifugation of the PRP at 2000× g for 15 min. Light transmission aggregometry (LTA) was evaluated in PRP by the Platelet Aggregation Profiler (PAP-8E, Bio/Data Corporation, PA, USA.). Zero % aggregation was defined as the light transmission of PRP and 100% aggregation was defined as the light transmission of PPP.
(§3) PRP was preincubated with 1 μM ticagrelor or TAM for 1 hour before co-incubating with different concentrations of TICA0212 or an isotype control Fab for 30 minutes. Platelet aggregation was initiated by addition of 20 uM ADP and was continuously recorded for 6 min. Data for final aggregation (FA) extent at 6 min was analysed.
(§4) The time of onset of TICA0212/MEDI2452 to reverse ticagrelor or TAM was determined in human platelet rich plasma (PRP) using light transmission aggregometry as in example 8. PRP was preincubated with 1 μM ticagrelor or TAM for 1 hour before adding 1 μM TICA0212/MEDI2452 and co-incubating for 5, 10, 15, 30 and 60 min, or adding an isotype control Fab for 30 min. Platelet aggregation was initiated by addition of 20 μM ADP and was continuously recorded for 6 min. Data for final aggregation (FA) extent at 6 min was analyzed.

[3] = test system: TAM mediated inhibition of ADP-induced platelet aggregation; assay: Light transmission aggregometry in human PRP, reversal of TAM; format: cell-based; settings: for mean extent of TAM reversal: Example 10, 1 μM Fab, n=3
Method: as §1, §2, §3, §4

Row | Molecule | IC50 (TICA0053 Fab) [µM] | ticagrelor plasma exposure, average ([1]; Example 11, after termination of the ticagrelor infusion, i.v., mice) [µM] | mean total plasma concentration ([1]; Example 12, end of ticagrelor infusion 300 μg/kg/min 20 min, mice) [µM] | mean total plasma concentration at time of tail cut ([1]; Example 12, vehicle treated mice, t=30 minutes) [µM] | IC50 ([2]; 1 μM ticagrelor, 20 μM ADP, human PRP, 30 min co-incubation, mean n=5, read-out: IC50, half-maximum reversal of ticagrelor mediated inhibition of ADP-induced platelet aggregation) [nM] | mean extent of reversal of ticagrelor ([2]; Example 9, 1:1 conditions (1 μM Fab: 1 μM ticagrelor), 30 min incubation) [%] | mean extent of reversal of ticagrelor mediated inhibition ([2]; 1 μM ticagrelor, co-incubation 5 min) [%] | mean extent of reversal of ticagrelor mediated inhibition ([2]; 1 μM ticagrelor, co-incubation 10 min) [%] | mean extent of reversal of ticagrelor mediated inhibition ([2]; 1 μM ticagrelor, co-incubation 15 min) [%] | mean extent of reversal of ticagrelor mediated inhibition ([2]; 1 μM ticagrelor, co-incubation 30 min) [%] | mean extent of reversal of ticagrelor mediated inhibition ([2]; 1 μM ticagrelor, co-incubation 60 min) [%] | IC50 ([3]; 1 μM TAM, 20 μM ADP, human PRP, 30 min co-incubation, mean n=5, read-out: IC50, half-maximum reversal of TAM mediated inhibition of ADP-induced platelet aggregation) [nM] | mean extent of reversal of TAM ([3]; Example 9, 1:1 conditions (1 μM Fab: 1 μM TAM), 30 min incubation) [%] | mean extent of TAM reversal ([3]; 1 μM TAM, co-incubation 5 min) [%] | mean extent of TAM reversal ([3]; 1 μM TAM, co-incubation 10 min) [%] | mean extent of TAM reversal ([3]; 1 μM TAM, co-incubation 15 min) [%] | mean extent of TAM reversal ([3]; 1 μM TAM, co-incubation 30 min) [%] | mean extent of TAM reversal ([3]; 1 μM TAM, co-incubation 60 min) [%]
1 | CCCSc1nc(N[C@@H]2C[C@H]2c2ccc(F)c(F)c2)c2nnn([C@@H]3C[C@H](OCCO)[C@@H](O)[C@H]3O)c2n1 [Ticagrelor, (1S,2S,3R,5S)-3-[7-{[(1R,2S)-2-(3,4-difluorophenyl)cyclopropyl]amino}-5-(propylthio)-3H-[1,2,3]triazolo[4,5-d]pyrimidin-3-yl]-5-(2-hydroxyethoxy)cyclopentane-1,2-diol] | 0.109 | 1.4 | 7.6 | 2.4 | – | – | – | – | – | – | – | – | – | – | – | – | – | –
2 | B1 | – | – | – | – | 640 | 78 | 85 | 69 | 74 | 80 | 81 | 780 | 62 | 53 | 56 | 58 | 69 | 74

Source: patent publication US12391768B2, “Antibodies to ticagrelor and methods of use” (MEDIMMUNE LIMITED, priority 2014, dated 2025)
